Measurements reported in patent publication US20260055186A1 (REPERTOIRE IMMUNE MEDICINES, published 2026).

Key:
[1] = target: T1, human CD8 on human T cells (human, UniProt P01732 22-235); assay: flow cytometry, human CD8+ T cells, antibody at 5 nM, anti-human IgG detection (MFI AF647)
T1 construct: whole, on cells; the antibodies were raised against human CD8 alpha; also called CD8 on human CD8+ T cells; hCD8
Method: (§1) The 16 above-referenced humanized 03A01-derived anti-CD8 antibodies were screened for their ability to bind human CD8 by evaluating binding to CD8⁺ T cells. The non-humanized parent (“03-Parent”) and the non-humanized parent comprising a heavy chain D64E liability mutation (“03-Parent-VH-D64E”) were used as controls. […] Cells were washed with 1×phosphate buffered saline (PBS) containing 1 mg/mL bovine serum albumin (PBS/BSA) and then stained with a 1:100 dilution of DyLight650-conjugated anti-human IgG H+L polyclonal antibody (ThermoFisher cat. no. Sa5-10129) in PBS/BSA. Following a 20-30 min incubation at 4° C., the cells were washed once with PBS/BSA, and then resuspended in PBS/BSA for analysis on a FACSCelesta using Diva software (BD Biosciences). The resulting data were analyzed using FlowJo. Data were quantified and reported as Max fluorescence intensity (MFI) of human IgG-Fc. […] Complete replacement of the LCDR1 (antibodies comprising VK4) eliminated binding to the CD8⁺ T cells.

[2] = target: T1, human CD8 on human T cells; assay: flow cytometry on human CD8+ T cells, titration, apparent KD
Method: as §1
(§2) The binding affinities of five of the above-referenced humanized anti-CD8 antibodies to human CD8 were determined by evaluating binding to CD8 human T cells using the method described above. Binding to human CD8+ T cells was tested at 7 serial 5-fold dilutions of each humanized 03A01 variant (from 50 nM to 3.2 pM). The resulting data were analyzed using FlowJo.

[3] = target: T1, human CD8 on human T cells; assay: flow cytometry on human CD8+ T cells, titration
Method: as §1, §2

T1 sequence (P01732 22-235): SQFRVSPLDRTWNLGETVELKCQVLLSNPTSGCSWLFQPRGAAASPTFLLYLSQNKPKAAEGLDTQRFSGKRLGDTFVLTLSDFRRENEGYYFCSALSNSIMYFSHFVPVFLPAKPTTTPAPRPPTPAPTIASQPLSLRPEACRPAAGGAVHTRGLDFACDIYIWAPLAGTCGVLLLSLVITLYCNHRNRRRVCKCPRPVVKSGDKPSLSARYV

B1: humanized 03A01-VH1-VK4 (antibody, human IgG1, V domains shown)
VH: EVQFQESGPGLVKPSQTLSLTCTVTGYSITSDFAWNWIRQPPGKELEWMGYISYSGDTNYNPSLRSRITISRDTSKNQFSLKLSSVTAADTATYYCTIRGYYTDSAFVFWGQGTLVTVSS
VL: DIQMTQSPSTLSVSVGDRVTITCRASQSISSWLAWYQQKPGKAPKLLISGATSLETGVPSRFSGSGSGLEYTLTISSLQPDDFATYYCQQYWNSPFTFGQGTKLEIK
notes: human IgG1 format; VK4 has the LCDR1 of the top human germline hit
- binding result [1]: no binding (tested: 5 nM)

B2: humanized 03A01-VH3-VK4 (antibody, human IgG1, V domains shown)
VH: EVQFQESGPGLVKPSQTLSLTCTVSGYSITSDFAWNWIRQPPGKGLEWMGYISYSGDTNYNPSLKSRVTISRDTSKNQFSLKLSSVTAADTAVYYCTIRGYYTDSAFVFWGQGTLVTVSS
VL: DIQMTQSPSTLSVSVGDRVTITCRASQSISSWLAWYQQKPGKAPKLLISGATSLETGVPSRFSGSGSGLEYTLTISSLQPDDFATYYCQQYWNSPFTFGQGTKLEIK
notes: as for B1
- binding result [1]: no binding (tested: 5 nM)

B3: humanized 03A01-VH4-VK4 (antibody, human IgG1, V domains shown)
VH: EVQFQESGPGLVKPSQTLSLTCTVSGYSITSDFAWNWIRQPPGKGLEWIGYISYSGDTYYNPSLKSRVTISRDTSKNQFSLKLSSVTAADTAVYYCTIRGYYTDSAFVFWGQGTLVTVSS
VL: DIQMTQSPSTLSVSVGDRVTITCRASQSISSWLAWYQQKPGKAPKLLISGATSLETGVPSRFSGSGSGLEYTLTISSLQPDDFATYYCQQYWNSPFTFGQGTKLEIK
notes: as for B1
- binding result [1]: no binding (tested: 5 nM)

B4: humanized 03A01-VH3-VK3 (antibody, human IgG1, V domains shown)
VH: EVQFQESGPGLVKPSQTLSLTCTVSGYSITSDFAWNWIRQPPGKGLEWMGYISYSGDTNYNPSLKSRVTISRDTSKNQFSLKLSSVTAADTAVYYCTIRGYYTDSAFVFWGQGTLVTVSS
VL: DIQMTQSPSTLSASVGDRVTITCKASDHINNWLAWYQQKPGKAPKLLISGATSLETGVPSRFSGSGSGLEYTLTISSLQPDDFATYYCQQYWNSPFTFGQGTKLEIK
notes: human IgG1 format; also called 03-VH3/VK3
- Kd [2]: 1.98 nM
- Fold Change to Parental Apparent KD [3]: 2.1 fold

B5: humanized 03A01-VH3-VK1 (antibody, human IgG1, V domains shown)
VH: EVQFQESGPGLVKPSQTLSLTCTVSGYSITSDFAWNWIRQPPGKGLEWMGYISYSGDTNYNPSLKSRVTISRDTSKNQFSLKLSSVTAADTAVYYCTIRGYYTDSAFVFWGQGTLVTVSS
VL: DIQMTQSSSTLSVSLGDRVTITCKASDHINNWLAWYQQKPGKAPRLLISGATSLETGVPSRFSGSGSGLEYTLTISSLQPDDFATYYCQQYWNSPFTFGQGTKLEIK
notes: human IgG1 format; also called 03-VH3/VK1
- Kd [2]: 1.65 nM
- Fold Change to Parental Apparent KD [3]: 1.8 fold

B6: humanized 03A01-VH2-VK4 (antibody, human IgG1, V domains shown)
VH: EVQFQESGPGLVKPSQTLSLTCTVSGYSITSDFAWNWIRQPPGKGLEWMGYISYSGDTNYNPSLRSRITISRDTSKNQFSLKLSSVTAADTAVYYCTIRGYYTDSAFVFWGQGTLVTVSS
VL: DIQMTQSPSTLSVSVGDRVTITCRASQSISSWLAWYQQKPGKAPKLLISGATSLETGVPSRFSGSGSGLEYTLTISSLQPDDFATYYCQQYWNSPFTFGQGTKLEIK
notes: as for B1
- binding result [1]: no binding (tested: 5 nM)
